Experimental data: patent US20230407373A1 (priority 2020, published 2023)
Like-named read-outs stand apart in the source and are kept apart here.

Legend:
Type in all cases: binding
HCoV-OC43 gRNA and sgRNA = details: for target (unweighted spectral count, OC43 Probe II capture) / target (unweighted spectral count): tested against no-probe control; for target (unweighted spectral count, OC43 Probe II capture): FDR<10%; for target (unweighted spectral count): OC43 Probe II, infected cells; for target (unweighted spectral count, OC43 Probe II) / background (unweighted spectral count, no-probe control): type n_48_v, 48 hpi; for target (unweighted spectral count, OC43 Probe II): OC43 Probe II capture on infected cells; for background (unweighted spectral count, no-probe control): no-probe control on infected cells; for target (spectral count) / background (spectral count): type s_36_m, Probe II; for target (spectral count): HCoV-OC43-infected HCT-8 cells; for background (spectral count): uninfected-probe control
SARS-CoV-2 gRNA = details: […]; LC-MS/MS; Probe I sample (first 199 lines of Table 2)
[1] = tested on: SARS-CoV-2 gRNA and sgRNAs; details: for background (unweighted spectral count in control): no-probe control pull-down, used as background for Probe II; for target (unweighted spectral count in RNP capture): Probe II capture, LC-MS/MS LFQ
gRNA of HCoV-OC43 = details: for target (spectral count) / background (spectral count): type g_36_m, 36 hpi, Probe I; for target (spectral count): HCoV-OC43-infected HCT-8 cells; for background (spectral count): uninfected-probe control; for target (spectral count, OC43 Probe I RNP capture) / background (spectral count, no-probe control): type n_48_v: 48 hours post-infection; for target (spectral count, OC43 Probe I RNP capture): infected cells, unweighted spectral count; for background (spectral count, no-probe control): no-probe control on infected cells

B1: HNRNPL: host protein, UniProt P14866 (protein, UniProt P14866 1-589, looked up)
Heterogeneous nuclear …: MSRRLLPRAEKRRRRLEQRQQPDEQRRRSGAMVKMAAAGGGGGGGRYYGGGSEGGRAPKRLKTDNAGDQHGGGGGGGGGAGAAGGGGGGENYDDPHKTPASPVVHIRGLIDGVVEADLVEALQEFGPISYVVVMPKKRQALVEFEDVLGACNAVNYAADNQIYIAGHPAFVNYSTSQKISRPGDSDDSRSVNSVLLFTILNPIYSITTDVLYTICNPCGPVQRIVIFRKNGVQAMVEFDSVQSAQRAKASLNGADIYSGCCTLKIEYAKPTRLNVFKNDQDTWDYTNPNLSGQGDPGSNPNKRQRQPPLLGDHPAEYGGPHGGYHSHYHDEGYGPPPPHYEGRRMGPPVGGHRRGPSRYGPQYGHPPPPPPPPEYGPHADSPVLMVYGLDQSKMNCDRVFNVFCLYGNVEKVKFMKSKPGAAMVEMADGYAVDRAITHLNNNFMFGQKLNVCVSKQPAIMPGQSYGLEDGSCSYKDFSESRNNRFSTPEQAAKNRIQHPSNVLHFFNAPLEVTEENFFEICDELGVKRPSSVKVFSGKSERSSSGLLEWESKSDALETLGFLNHYQMKNPNGPYPYTLKLCFSTAQHAS
HCoV-OC43 gRNA and sgRNA; 36 hpi, type n_36_v
  target (unweighted spectral count, OC43 Probe II capture): 42
HCoV-OC43 gRNA and sgRNA; 12 hpi (type n_12_v)
  target (unweighted spectral count): 12
HCoV-OC43 gRNA and sgRNA; 24 hpi (type n_24_v)
  target (unweighted spectral count): 25
HCoV-OC43 gRNA and sgRNA
  target (unweighted spectral count, OC43 Probe II): 46
  background (unweighted spectral count, no-probe control): 2
HCoV-OC43 gRNA and sgRNA; 36 hpi
  target (spectral count): 42
  background (spectral count): 5
SARS-CoV-2 gRNA
  target (unweighted spectral count of the protein in the RNP capture): 43
[1]
  background (unweighted spectral count in control): 1
gRNA of HCoV-OC43
  target (spectral count): 59
  background (spectral count): 6

B2: DDX5: host protein, UniProt P17844 (protein, UniProt P17844 1-614, looked up)
Probable ATP-dependent RNA …: MSGYSSDRDRGRDRGFGAPRFGGSRAGPLSGKKFGNPGEKLVKKKWNLDELPKFEKNFYQEHPDLARRTAQEVETYRRSKEITVRGHNCPKPVLNFYEANFPANVMDVIARQNFTEPTAIQAQGWPVALSGLDMVGVAQTGSGKTLSYLLPAIVHINHQPFLERGDGPICLVLAPTRELAQQVQQVAAEYCRACRLKSTCIYGGAPKGPQIRDLERGVEICIATPGRLIDFLECGKTNLRRTTYLVLDEADRMLDMGFEPQIRKIVDQIRPDRQTLMWSATWPKEVRQLAEDFLKDYIHINIGALELSANHNILQIVDVCHDVEKDEKLIRLMEEIMSEKENKTIVFVETKRRCDELTRKMRRDGWPAMGIHGDKSQQERDWVLNEFKHGKAPILIATDVASRGLDVEDVKFVINYDYPNSSEDYIHRIGRTARSTKTGTAYTFFTPNNIKQVSDLISVLREANQAINPKLLQLVEDRGSGRSRGRGGMKDDRRDRYSAGKRGGFNTFRDRENYDRGYSSLLKRDFGAKTQNGVYSAANYTNGSFGSNFVSAGIQTSFRTGNPTGTYQNGYDSTQQYGSNVPNMHNGMNQQAYAYPATAAAPMIGYPMPTGYSQ
HCoV-OC43 gRNA and sgRNA; 12 hpi (type n_12_v)
  target (unweighted spectral count): 8
HCoV-OC43 gRNA and sgRNA
  target (unweighted spectral count, OC43 Probe II): 31
  background (unweighted spectral count, no-probe control): 3
HCoV-OC43 gRNA and sgRNA; 36 hpi
  target (spectral count): 33
  background (spectral count): 3
SARS-CoV-2 gRNA
  target (unweighted spectral count of the protein in the RNP capture): 32
[1]
  target (unweighted spectral count in RNP capture): 24
  background (unweighted spectral count in control): 1
gRNA of HCoV-OC43
  target (spectral count): 30
  background (spectral count): 3
  target (spectral count, OC43 Probe I RNP capture): 30
  background (spectral count, no-probe control): 3

B3: HNRNPDL (protein, UniProt O14979 1-420, looked up)
Heterogeneous nuclear …: MEVPPRLSHVPPPLFPSAPATLASRSLSHWRPRPPRQLAPLLPSLAPSSARQGARRAQRHVTAQQPSRLAGGAAIKGGRRRRPDLFRRHFKSSSIQRSAAAAAATRTARQHPPADSSVTMEDMNEYSNIEEFAEGSKINASKNQQDDGKMFIGGLSWDTSKKDLTEYLSRFGEVVDCTIKTDPVTGRSRGFGFVLFKDAASVDKVLELKEHKLDGKLIDPKRAKALKGKEPPKKVFVGGLSPDTSEEQIKEYFGAFGEIENIELPMDTKTNERRGFCFITYTDEEPVKKLLESRYHQIGSGKCEIKVAQPKEVYRQQQQQQKGGRGAAAGGRGGTRGRGRGQGQNWNQGFNNYYDQGYGNYNSAYGGDQNYSGYGGYDYTGYNYGNYGYGQGYADYSGQQSTYGKASRGGGNHQNNYQPY
HCoV-OC43 gRNA and sgRNA; 12 hpi (type n_12_v)
  target (unweighted spectral count): 6
HCoV-OC43 gRNA and sgRNA; 24 hpi (type n_24_v)
  target (unweighted spectral count): 9
HCoV-OC43 gRNA and sgRNA
  target (unweighted spectral count, OC43 Probe II): 18
  background (unweighted spectral count, no-probe control): 3
SARS-CoV-2 gRNA
  target (unweighted spectral count of the protein in the RNP capture): 25
[1]
  target (unweighted spectral count in RNP capture): 25
  background (unweighted spectral count in control): 1
gRNA of HCoV-OC43
  target (spectral count, OC43 Probe I RNP capture): 17
  background (spectral count, no-probe control): 3

B4: SFPQ: host protein, UniProt P23246 (protein, UniProt P23246 1-707, looked up)
Splicing factor, proline- and …: MSRDRFRSRGGGGGGFHRRGGGGGRGGLHDFRSPPPGMGLNQNRGPMGPGPGQSGPKPPIPPPPPHQQQQQPPPQQPPPQQPPPHQPPPHPQPHQQQQPPPPPQDSSKPVVAQGPGPAPGVGSAPPASSSAPPATPPTSGAPPGSGPGPTPTPPPAVTSAPPGAPPPTPPSSGVPTTPPQAGGPPPPPAAVPGPGPGPKQGPGPGGPKGGKMPGGPKPGGGPGLSTPGGHPKPPHRGGGEPRGGRQHHPPYHQQHHQGPPPGGPGGRSEEKISDSEGFKANLSLLRRPGEKTYTQRCRLFVGNLPADITEDEFKRLFAKYGEPGEVFINKGKGFGFIKLESRALAEIAKAELDDTPMRGRQLRVRFATHAAALSVRNLSPYVSNELLEEAFSQFGPIERAVVIVDDRGRSTGKGIVEFASKPAARKAFERCSEGVFLLTTTPRPVIVEPLEQLDDEDGLPEKLAQKNPMYQKERETPPRFAQHGTFEYEYSQRWKSLDEMEKQQREQVEKNMKDAKDKLESEMEDAYHEHQANLLRQDLMRRQEELRRMEELHNQEMQKRKEMQLRQEEERRRREEEMMIRQREMEEQMRRQREESYSRMGYMDPRERDMRMGGGGAMNMGDPYGSGGQKFPPLGGGGGIGYEANPGVPPATMSGSMMGSDMRTERFGQGGAGPVGGQGPRGMGPGTPAGYGRGREEYEGPNKKPRF
HCoV-OC43 gRNA and sgRNA; 36 hpi, type n_36_v
  target (unweighted spectral count, OC43 Probe II capture): 36
HCoV-OC43 gRNA and sgRNA; 24 hpi (type n_24_v)
  target (unweighted spectral count): 16
HCoV-OC43 gRNA and sgRNA
  target (unweighted spectral count, OC43 Probe II): 33
  background (unweighted spectral count, no-probe control): 7
HCoV-OC43 gRNA and sgRNA; 36 hpi
  target (spectral count): 36
  background (spectral count): 3
SARS-CoV-2 gRNA
  target (unweighted spectral count of the protein in the RNP capture): 50
[1]
  target (unweighted spectral count in RNP capture): 38
  background (unweighted spectral count in control): 1
gRNA of HCoV-OC43
  target (spectral count): 33
  background (spectral count): 7
  target (spectral count, OC43 Probe I RNP capture): 39
  background (spectral count, no-probe control): 7

B5: SERBP1 (protein, UniProt Q8NC51 2-408, looked up)
SERPINE1 mRNA-binding protein …: PGHLQEGFGCVVTNRFDQLFDDESDPFEVLKAAENKKKEAGGGGVGGPGAKSAAQAAAQTNSNAAGKQLRKESQKDRKNPLPPSVGVVDKKEETQPPVALKKEGIRRVGRRPDQQLQGEGKIIDRRPERRPPRERRFEKPLEEKGEGGEFSVDRPIIDRPIRGRGGLGRGRGGRGRGMGRGDGFDSRGKREFDRHSGSDRSSFSHYSGLKHEDKRGGSGSHNWGTVKDELTESPKYIQKQISYNYSDLDQSNVTEETPEGEEHHPVADTENKENEVEEVKEEGPKEMTLDEWKAIQNKDRAKVEFNIRKPNEGADGQWKKGFVLHKSKSEEAHAEDSVMDHHFRKPANDITSQLEINFGDLGRPGRGGRGGRGGRGRGGRPNRGSRTDKSSASAPDVDDPEAFPALA
HCoV-OC43 gRNA and sgRNA; 36 hpi, type n_36_v
  target (unweighted spectral count, OC43 Probe II capture): 15
HCoV-OC43 gRNA and sgRNA; 24 hpi (type n_24_v)
  target (unweighted spectral count): 6
HCoV-OC43 gRNA and sgRNA
  target (unweighted spectral count, OC43 Probe II): 18
  background (unweighted spectral count, no-probe control): 4
SARS-CoV-2 gRNA
  target (unweighted spectral count of the protein in the RNP capture): 17
[1]
  target (unweighted spectral count in RNP capture): 30
  background (unweighted spectral count in control): 1
gRNA of HCoV-OC43
  target (spectral count, OC43 Probe I RNP capture): 19
  background (spectral count, no-probe control): 4

B6: RBM3: host protein, UniProt P98179 (protein, UniProt P98179 1-157, looked up)
RNA-binding protein 3: MSSEEGKLFVGGLNFNTDEQALEDHFSSFGPISEVVVVKDRETQRSRGFGFITFTNPEHASVAMRAMNGESLDGRQIRVDHAGKSARGTRGGGFGAHGRGRSYSRGGGDQGYGSGRYYDSRPGGYGYGYGRSRDYNGRNQGGYDRYSGGNYRDNYDN
HCoV-OC43 gRNA and sgRNA; 24 hpi, type n_24_v
  target (unweighted spectral count, OC43 Probe II capture): 6
HCoV-OC43 gRNA and sgRNA; 36 hpi, type n_36_v
  target (unweighted spectral count, OC43 Probe II capture): 10
SARS-CoV-2 gRNA
  target (unweighted spectral count of the protein in the RNP capture): 15
[1]
  target (unweighted spectral count in RNP capture): 21
  background (unweighted spectral count in control): 1
gRNA of HCoV-OC43
  target (spectral count): 14
  background (spectral count): 2
  target (spectral count, OC43 Probe I RNP capture): 17
  background (spectral count, no-probe control): 1
